Values of other authors, collected in paper PMC12462375.

Key:
basigin (Homo sapiens) = basigin (Homo sapiens) (UniProt P35613)
CD47 (Homo sapiens) = CD47 (Homo sapiens) (UniProt Q08722)

Sequence of UniProt P35613 (P35613 22-325): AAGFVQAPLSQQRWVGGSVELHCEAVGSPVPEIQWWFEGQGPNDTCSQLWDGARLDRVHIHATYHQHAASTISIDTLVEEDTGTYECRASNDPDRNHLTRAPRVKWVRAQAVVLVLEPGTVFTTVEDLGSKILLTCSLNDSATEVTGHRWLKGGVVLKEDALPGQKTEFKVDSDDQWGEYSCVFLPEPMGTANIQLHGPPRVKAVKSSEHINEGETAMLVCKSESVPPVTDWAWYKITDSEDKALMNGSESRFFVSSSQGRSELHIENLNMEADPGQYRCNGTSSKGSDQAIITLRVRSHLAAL

Kd (CD47 (Homo sapiens)) [µM] | Substance | Kd (basigin (Homo sapiens)) [µM]
 | PfRH5 (from UniProt Q8IFM5) | 1.1
0.74 | SIRPα (PDB 4CMM) (from UniProt P78324) | 
